Source: paper PMC9701221 (Nature Communications, 2022)

B1: bacteriophage SPP1 head completion protein gp16 (stopper protein) (natural protein, UniProt O48446 1-109, looked up)
chain: MYEEFPDVITFQSYVEQSNGEGGKTYKWVDEFTAAAHVQPISQEEYYKAQQLQTPIGYNIYTPYDDRIDKKMRVIYRGKIVTFIGDPVDLSGLQEITRIKGKEDGAYVG
notes: Head completion (stopper) protein gp16 of bacteriophage SPP1; native protein from the virion connector; Hexamer in the connector; monomer in solution before assembly (PDB 2KCA, cited); source: CsCl gradient, EDTA disruption, glycerol gradient
B2: bacteriophage SPP1 head completion protein gp15 (adaptor protein) (natural protein, UniProt Q38584 1-102, looked up)
chain: MDIQRVKRLLSITNDKHDEYLTEMVPLLVEFAKDECHNPFIDKDGNESIPSGVLIFVAKAAQFYMTNAGLTGRSMDTVSYNFATEIPSTILKKLNPYRKMAR
notes: Head completion (adaptor) protein gp15 of bacteriophage SPP1; native protein from the virion connector; C-terminal residues ArgLysMetAlaArg, last residue named Arg102; Dodecamer in the connector; monomer in solution before assembly (PDB 2KBZ, cited); source: CsCl gradient, EDTA disruption, glycerol gradient; copies: 12
B3: bacteriophage SPP1 portal protein gp6 (natural protein, UniProt P54309 1-503, looked up)
chain: MADIYPLGKTHTEELNEIIVESAKEIAEPDTTMIQKLIDEHNPEPLLKGVRYYMCENDIEKKRRTYYDAAGQQLVDDTKTNNRTSHAWHKLFVDQKTQYLVGEPVTFTSDNKTLLEYVNELADDDFDDILNETVKNMSNKGIEYWHPFVDEEGEFDYVIFPAEEMIVVYKDNTRRDILFALRYYSYKGIMGEETQKAELYTDTHVYYYEKIDGVYQMDYSYGENNPRPHMTKGGQAIGWGRVPIIPFKNNEEMVSDLKFYKDLIDNYDSITSSTMDSFSDFQQIVYVLKNYDGENPKEFTANLRYHSVIKVSGDGGVDTLRAEIPVDSAAKELERIQDELYKSAQAVDNSPETIGGGATGPALENLYALLDLKANMAERKIRAGLRLFFWFFAEYLRNTGKGDFNPDKELTMTFTRTRIQNDSEIVQSLVQGVTGGIMSKETAVARNPFVQDPEEELARIEEEMNQYAEMQGNLLDDEGGDDDLEEDDPNAGAAESGGAGQVS
notes: Portal protein gp6 of bacteriophage SPP1, 503 residues; native protein from the virion connector; traced in the cryoEM map from residue 28 to 470; Dodecamer in the connector gp6(12)gp15(12)gp16(6); the assembly-naive recombinant form (PDB 2JES) is a 13-mer; also called connector gp6; gp6 12-mer; source: CsCl gradient, EDTA disruption, glycerol gradient; copies: 12

Experiments:
Experiment in all cases: cryo-EM structure; single particle cryoEM of the native gp6gp15gp16 connector extracted from tailless DNA-filled capsids, 0.64 mg/mL in 0.5x TBT (Tris-Cl pH 7.5, NaCl, MgCl2); C6 symmetry in the final refinement; 2.7 Å (FSC 0.5)
[1] = target: the molecule itself
[2] = target: B3; conditions: both partners purified
[3] = target: B1; conditions: both partners purified

| Binder | stoichiometry N [1] | binding result [2] | binding result [3] |
| --- | --- | --- | --- |
| B1 | 6 |  |  |
| B2 | 12 | binds | binds |
| B3 | 12 |  |  |
